Assay results reported in patent publication US20160002326A1 (AbbVie / Abbott, published 2016).

Columns and labels:
[1] = molecular target: T1, human IL-17A/F heterodimer (human, UniProt Q16552 24-155; Q96PD4 31-163); assay: Biacore SPR, recombinant antigen, mean of 3 experiments
T1 construct: also called hIL-17A/F
T1 sequence 1: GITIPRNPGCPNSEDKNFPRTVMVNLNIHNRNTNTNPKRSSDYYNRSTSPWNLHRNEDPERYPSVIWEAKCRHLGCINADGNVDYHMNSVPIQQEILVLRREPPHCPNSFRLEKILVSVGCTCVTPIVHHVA
T1 sequence 2: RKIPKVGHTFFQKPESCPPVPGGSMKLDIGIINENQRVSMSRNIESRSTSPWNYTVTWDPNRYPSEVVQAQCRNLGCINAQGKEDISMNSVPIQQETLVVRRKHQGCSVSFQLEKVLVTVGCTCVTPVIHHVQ
Text: (§1) The apparent association rate (ka) and dissociation rate (kd) were derived and used to calculate the overall equilibrium dissociation constant (KD) for the interaction.

human IL-17A/A homodimer = molecular target: T2, human IL-17A/A homodimer (human, UniProt Q16552 24-155); assay: as above
T2 construct: also called hIL-17A/A
T2 sequence: T1 sequence 1
Text: as §1

human TNF-α [2] = molecular target: T3, human TNF-α (human, UniProt P01375 77-233); assay: as above
T3 construct: also called hTNF-α; hTNF
T3 sequence (P01375 77-233 limits assumed): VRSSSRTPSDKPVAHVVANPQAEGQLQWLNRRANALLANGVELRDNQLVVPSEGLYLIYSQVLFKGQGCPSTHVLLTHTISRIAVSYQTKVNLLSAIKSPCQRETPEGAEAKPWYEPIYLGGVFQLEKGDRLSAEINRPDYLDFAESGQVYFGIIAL
Text: as §1

4-1BB ligand = 4-1BB ligand (UniProt P41273 71-254, limits assumed); assay: direct ELISA
4-1BB ligand, sequence (P41273 71-254 limits assumed): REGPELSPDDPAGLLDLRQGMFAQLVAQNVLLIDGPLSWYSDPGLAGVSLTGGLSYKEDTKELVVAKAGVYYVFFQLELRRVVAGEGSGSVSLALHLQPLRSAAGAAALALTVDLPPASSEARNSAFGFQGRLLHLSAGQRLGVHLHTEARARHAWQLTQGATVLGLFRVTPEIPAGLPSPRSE

EDA-A2 = molecular target: T4, EDA-A2 (UniProt Q92838-3 245-389, limits assumed); assay: direct ELISA
T4 sequence (looked up): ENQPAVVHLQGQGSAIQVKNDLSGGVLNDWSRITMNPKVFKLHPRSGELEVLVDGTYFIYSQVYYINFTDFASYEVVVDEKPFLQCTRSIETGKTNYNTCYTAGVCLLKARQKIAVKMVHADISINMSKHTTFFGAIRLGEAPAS

IL-17B = molecular target: T5, IL-17B (UniProt Q9UHF5 21-180); assay: direct ELISA
T5 sequence (looked up): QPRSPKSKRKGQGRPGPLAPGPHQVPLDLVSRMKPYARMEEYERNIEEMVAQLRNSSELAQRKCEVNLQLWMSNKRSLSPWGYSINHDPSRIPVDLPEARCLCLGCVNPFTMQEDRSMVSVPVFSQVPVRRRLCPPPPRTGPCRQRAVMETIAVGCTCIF

RANK ligand = molecular target: T6, RANK ligand (UniProt O14788 140-317); assay: direct ELISA
T6 sequence (looked up): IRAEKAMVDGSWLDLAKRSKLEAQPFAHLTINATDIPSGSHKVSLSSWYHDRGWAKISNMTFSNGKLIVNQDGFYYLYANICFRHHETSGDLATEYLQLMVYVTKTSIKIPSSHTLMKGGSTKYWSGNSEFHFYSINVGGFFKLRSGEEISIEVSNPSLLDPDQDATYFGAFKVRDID

CD40 ligand = molecular target: T7, CD40 ligand (UniProt P29965 113-261, limits assumed); assay: direct ELISA
T7 sequence (looked up): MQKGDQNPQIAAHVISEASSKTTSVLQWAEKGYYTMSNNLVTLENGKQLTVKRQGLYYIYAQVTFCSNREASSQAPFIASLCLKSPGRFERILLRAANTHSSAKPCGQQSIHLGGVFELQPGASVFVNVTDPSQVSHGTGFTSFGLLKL

Fas ligand = molecular target: T8, Fas ligand (UniProt P48023 134-281, limits assumed); assay: direct ELISA
T8 sequence (looked up): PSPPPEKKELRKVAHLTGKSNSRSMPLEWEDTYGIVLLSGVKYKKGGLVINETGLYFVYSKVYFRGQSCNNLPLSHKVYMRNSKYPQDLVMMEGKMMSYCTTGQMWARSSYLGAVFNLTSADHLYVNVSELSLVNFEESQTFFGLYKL

OX40 ligand = molecular target: T9, OX40 ligand (UniProt P23510 51-183); assay: direct ELISA
T9 sequence (looked up): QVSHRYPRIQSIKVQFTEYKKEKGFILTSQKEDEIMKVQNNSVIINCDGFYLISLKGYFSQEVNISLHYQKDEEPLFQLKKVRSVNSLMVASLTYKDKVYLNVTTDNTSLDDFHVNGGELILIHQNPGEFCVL

LIGHT = LIGHT (UniProt O43557 74-240, limits assumed); assay: direct ELISA
LIGHT, sequence (O43557 74-240 limits assumed): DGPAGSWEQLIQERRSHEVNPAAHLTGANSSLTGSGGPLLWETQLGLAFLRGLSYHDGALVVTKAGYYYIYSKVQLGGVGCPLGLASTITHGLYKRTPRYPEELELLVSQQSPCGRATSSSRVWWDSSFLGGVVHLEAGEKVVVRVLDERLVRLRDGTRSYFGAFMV

IL-17E (IL-25) = molecular target: T10, IL-17E (IL-25) (UniProt Q9H293 33-177); assay: direct ELISA
T10 sequence (looked up): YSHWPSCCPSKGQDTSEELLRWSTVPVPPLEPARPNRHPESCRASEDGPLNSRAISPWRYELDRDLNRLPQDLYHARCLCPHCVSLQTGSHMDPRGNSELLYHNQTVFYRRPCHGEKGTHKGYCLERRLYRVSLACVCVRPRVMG

BAFF = BAFF (UniProt Q9Y275 134-285); assay: direct ELISA
BAFF, sequence (Q9Y275 134-285 limits assumed): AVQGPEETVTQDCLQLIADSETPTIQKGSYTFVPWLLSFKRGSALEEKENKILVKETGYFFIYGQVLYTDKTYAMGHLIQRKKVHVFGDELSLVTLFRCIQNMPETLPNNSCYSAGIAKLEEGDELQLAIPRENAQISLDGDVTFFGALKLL

IL-17C = molecular target: T11, IL-17C (UniProt Q9P0M4 19-197); assay: direct ELISA
T11 sequence (looked up): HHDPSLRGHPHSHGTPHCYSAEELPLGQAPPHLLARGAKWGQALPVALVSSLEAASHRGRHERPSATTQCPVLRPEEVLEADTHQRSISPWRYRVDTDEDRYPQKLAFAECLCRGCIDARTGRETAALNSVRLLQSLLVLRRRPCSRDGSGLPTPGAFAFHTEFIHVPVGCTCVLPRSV

CD30 ligand = molecular target: T12, CD30 ligand (UniProt P32971 63-234); assay: direct ELISA
T12 sequence (looked up): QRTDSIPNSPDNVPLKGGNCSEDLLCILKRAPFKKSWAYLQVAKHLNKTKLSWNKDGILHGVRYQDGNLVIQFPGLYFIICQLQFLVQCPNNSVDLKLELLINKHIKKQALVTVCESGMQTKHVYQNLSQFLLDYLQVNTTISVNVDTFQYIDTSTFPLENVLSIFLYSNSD

IL-17D = molecular target: T13, IL-17D (UniProt Q8TAD2 16-202, limits assumed); assay: direct ELISA
T13 sequence (looked up): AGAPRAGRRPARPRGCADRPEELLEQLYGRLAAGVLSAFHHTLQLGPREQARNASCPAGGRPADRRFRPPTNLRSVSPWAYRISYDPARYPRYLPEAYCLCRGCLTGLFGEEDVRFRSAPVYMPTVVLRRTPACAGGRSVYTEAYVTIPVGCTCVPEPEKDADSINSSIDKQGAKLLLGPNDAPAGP

human TNF-α [3] = molecular target: T3, human TNF-α; assay: cell-based or functional assay

B1: ABBV-257 anti-human TNF and IL-17 DVD-Ig binding protein (bispecific antibody, human IgG1, kappa, L234A L235A)
heavy: EVQLVQSGAEVKKPGASVKVSCKASGYTFANYGIIWVRQAPGQGLEWMGWINTYTGKPTYAQKFQGRVTMTTDTSTSTAYMELSSLRSEDTAVYYCARKLFTTMDVTDNAMDYWGQGTTVTVSSGGGGSGGGGSEVQLVQSGAEVKKPGSSVKVSCKASGYTFTDYEIHWVRQAPGQGLEWMGVNDPESGGTFYNQKFDGRVTLTADESTSTAYMELSSLRSEDTAVYYCTRYSKWDSFDGMDYWGQGTTVTVSSASTKGPSVFPLAPSSKSTSGGTAALGCLVKDYFPEPVTVSWNSGALTSGVHTFPAVLQSSGLYSLSSVVTVPSSSLGTQTYICNVNHKPSNTKVDKKVEPKSCDKTHTCPPCPAPEAAGGPSVFLFPPKPKDQLMISRTPEVTCVVVDVSHEDPEVKFNWYVDGVEVHNAKTKPREEQYNSTYRVVSVLTVLHQDWLNGKEYKCKVSNKALPAPIEKTISKAKGQPREPQVYTLPPSREEMTKNQVSLTCLVKGFYPSDIAVEWESNGQPENNYKTTPPVLDSDGSFFLYSKLTVDKSRWQQGNVFSCSVLHEALHNHYTQKSLSLSPGK
light: DIQMTQSPSSLSASVGDRVTITCRASQDISQYLNWYQQKPGKAPKLLIYYTSRLQSGVPSRFSGSGSGTDFTLTISSLQPEDFATYFCQQGNTWPPTFGQGTKLEIKRGGSGGGGSGDIQMTQSPSSLSASVGDRVTITCRASSGIISYIDWFQQKPGKAPKRLIYATFDLASGVPSRFSGSGSGTDYTLTISSLQPEDFATYYCRQVGSYPETFGQGTKLEIKRTVAAPSVFIFPPSDEQLKSGTASVVCLLNNFYPREAKVQWKVDNALQSGNSQESVTEQDSKDSTYSLSSTLTLSKADYEKHKVYACEVTHQGLSSPVTKSFNRGEC
modifications: N-linked glycans on the heavy chain at the asparagine commonly modified on IgG1 antibodies (fucosylated biantennary oligosaccharides with 0, 1 or 2 galactose residues)
notes: It says the constant region carries L234A, L235A and also T250Q and M428L; also called Anti-IL-17/TNF DVD-Ig Protein
[1]
  Kd: 14 pM
  koff: 4.8e-06 s⁻¹
  kon: 340000 M⁻¹ s⁻¹
Human IL-17A/A homodimer
  Kd: 3 pM
  koff: 3e-06 s⁻¹
  kon: 1.1e+06 M⁻¹ s⁻¹
Human TNF-α [2]
  Kd: 4.9 pM
  kon: 3.3e+06 M⁻¹ s⁻¹
4-1BB ligand
  binding result: no binding
EDA-A2
  binding result: no binding
IL-17B
  binding result: no binding
RANK ligand
  binding result: no binding
CD40 ligand
  binding result: no binding
Fas ligand
  binding result: no binding
OX40 ligand
  binding result: no binding
LIGHT
  binding result: no binding
IL-17E (IL-25)
  binding result: no binding
BAFF
  binding result: no binding
IL-17C
  binding result: no binding
CD30 ligand
  binding result: no binding
IL-17D
  binding result: no binding
Human TNF-α [3]
  IC50, in vitro neutralization assay (In-Vitro Potency): 25 pM
